T1: AP2-LT D1 (Plasmodium falciparum, UniProt Q8IAM1 2520-2577)
T1 sequence: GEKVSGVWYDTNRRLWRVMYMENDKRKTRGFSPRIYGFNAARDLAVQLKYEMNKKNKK

T2: PF3D7_0420300 D1 (Plasmodium falciparum, UniProt Q8I1N6 1956-2015)
T2 sequence: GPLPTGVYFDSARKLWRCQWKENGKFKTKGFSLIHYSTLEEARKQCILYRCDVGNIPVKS

T3: AP2-HC D1 (Plasmodium falciparum, UniProt Q8IKR9 1316-1374)
T3 sequence: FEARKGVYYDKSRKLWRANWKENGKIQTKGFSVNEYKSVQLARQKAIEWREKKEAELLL

B1: CACACA_negctrl_site189 (dsDNA)
DNA 1: AAGTTTATTATATATAAATTATTATATATATATATA
DNA 2: TATATATATATATAATAATTTATATATAATAAACTT
B2: CACACA_negctrl_site149 (dsDNA)
DNA 1: TCTTATTCAAACGTAAAACGAAGAAGAAAAAAAAAA
DNA 2: TTTTTTTTTTCTTCTTCGTTTTACGTTTGAATAAGA
B3: CACACA_site6254 (dsDNA)
DNA 1: TATTTATTAAGACACACACACACACGCACAAAATAA
DNA 2: TTATTTTGTGCGTGTGTGTGTGTGTCTTAATAAATA
B4: CACACA_site8058 (dsDNA)
DNA 1: AACATACATAAACACACACACACACCCACACCCACA
DNA 2: TGTGGGTGTGGGTGTGTGTGTGTGTTTATGTATGTT
B5: CACACA_negctrl_site1587 (dsDNA)
DNA 1: TTATAATATAAAAATAAATAAATAAATAAATAAATA
DNA 2: TATTTATTTATTTATTTATTTATTTTTATATTATAA
B6: CACACA_negctrl_site196 (dsDNA)
DNA 1: TTTTTAAATATATAATAGAATTGATTGTATTATATA
DNA 2: TATATAATACAATCAATTCTATTATATATTTAAAAA
B7: CACACA_site6387 (dsDNA)
DNA 1: TTAACAAATAGACACACACACACACGCAAAAAAAAA
DNA 2: TTTTTTTTTGCGTGTGTGTGTGTGTCTATTTGTTAA
B8: CACACA_site6551 (dsDNA)
DNA 1: ATAAAAAGGAGACACACACACACACGCATATTTATA
DNA 2: TATAAATATGCGTGTGTGTGTGTGTCTCCTTTTTAT
B9: CACACA_site5283 (dsDNA)
DNA 1: AATATAAATAAAAACACACACACACCGATATATATA
DNA 2: TATATATATCGGTGTGTGTGTGTTTTTATTTATATT
B10: CACACA_negctrl_site1047 (dsDNA)
DNA 1: TTCACATGAAGAATTAAAATAAAACTAGGAAATTAA
DNA 2: TTAATTTCCTAGTTTTATTTTAATTCTTCATGTGAA
B11: CACACA_site7288 (dsDNA)
DNA 1: AAAAAAAAAAAAAACACACACACACGCACATATACA
DNA 2: TGTATATGTGCGTGTGTGTGTGTTTTTTTTTTTTTT
B12: CACACA_negctrl_site1463 (dsDNA)
DNA 1: TGTTTCTGCTCTGGACATTTTTAAAAAAGGGAAAGC
DNA 2: GCTTTCCCTTTTTTAAAAATGTCCAGAGCAGAAACA
B13: CACACA_site4111 (dsDNA)
DNA 1: CCCCCCGTGTTATATACACACATAATCAAATAAAAT
DNA 2: ATTTTATTTGATTATGTGTGTATATAACACGGGGGG
B14: CACACA_negctrl_site917 (dsDNA)
DNA 1: ATTTCTATAAAAATAATCTACATTTTTTTTTTTTTT
DNA 2: AAAAAAAAAAAAAATGTAGATTATTTTTATAGAAAT
B15: CACACA_site2623 (dsDNA)
DNA 1: TAATAAATAAATGACACACACACACCCAAAAAAAAA
DNA 2: TTTTTTTTTGGGTGTGTGTGTGTCATTTATTTATTA
B16: CACACA_site4405 (dsDNA)
DNA 1: TATATATATCTGTACACACACACATATAAATAAATA
DNA 2: TATTTATTTATATGTGTGTGTGTACAGATATATATA
B17: CACACA_site8115 (dsDNA)
DNA 1: AGAAAATACACGCATACACACACACCCACCCACATA
DNA 2: TATGTGGGTGGGTGTGTGTGTATGCGTGTATTTTCT
B18: CACACA_site6304 (dsDNA)
DNA 1: CACACGCACGAACACACACACACACGCGCACATATA
DNA 2: TATATGTGCGCGTGTGTGTGTGTGTTCGTGCGTGTG
B19: CACACA_negctrl_site1450 (dsDNA)
DNA 1: ATATATTTTTAAAAAAATTAAGAATTTTACATCTCC
DNA 2: GGAGATGTAAAATTCTTAATTTTTTTAAAAATATAT
B20: CACACA_site8688 (dsDNA)
DNA 1: AAAACACGCGGACACACACACACACCCACCCATATA
DNA 2: TATATGGGTGGGTGTGTGTGTGTGTCCGCGTGTTTT
B21: CACACA_negctrl_site1225 (dsDNA)
DNA 1: ATTTTTTTTTTTTTTTTTTATATGCTCTCCATGAGA
DNA 2: TCTCATGGAGAGCATATAAAAAAAAAAAAAAAAAAT
B22: CACACA_site3848 (dsDNA)
DNA 1: ATAAAACAAAAACACACACACATACACAAAAAAAAA
DNA 2: TTTTTTTTTGTGTATGTGTGTGTGTTTTTGTTTTAT
B23: CACACA_site2302 (dsDNA)
DNA 1: GACATATTCCCCCCCACACACACACCCACATACATA
DNA 2: TATGTATGTGGGTGTGTGTGTGGGGGGGAATATGTC
B24: CACACA_site1515 (dsDNA)
DNA 1: AGTACAGACATAGACACACACACACCCATAAAAAAA
DNA 2: TTTTTTTATGGGTGTGTGTGTGTCTATGTCTGTACT
B25: CACACA_negctrl_site12 (dsDNA)
DNA 1: TTCTTCTAATCCTTTTATCTCATTAAAAAAATATAA
DNA 2: TTATATTTTTTTAATGAGATAAAAGGATTAGAAGAA
B26: CACACA_site8849 (dsDNA)
DNA 1: AAAAAAAAAAAACACACACACACACCGATACATACA
DNA 2: TGTATGTATCGGTGTGTGTGTGTGTTTTTTTTTTTT
B27: CACACA_negctrl_site1507 (dsDNA)
DNA 1: TCTTTAAATCGAGTGTTAAATAATATAATATAAAAA
DNA 2: TTTTTATATTATATTATTTAACACTCGATTTAAAGA
B28: CACACA_negctrl_site676 (dsDNA)
DNA 1: TATTTATTGTGATACTTATATTACTTAATGATTAAA
DNA 2: TTTAATCATTAAGTAATATAAGTATCACAATAAATA
B29: CACACA_site4441 (dsDNA)
DNA 1: CAAATACCCGGACACACACACACAAAAAAAAAAAAA
DNA 2: TTTTTTTTTTTTTGTGTGTGTGTGTCCGGGTATTTG
B30: CACACA_site8824 (dsDNA)
DNA 1: GATAATTATGGACACACACACACACCCACAACTAAA
DNA 2: TTTAGTTGTGGGTGTGTGTGTGTGTCCATAATTATC
B31: CACACA_negctrl_site737 (dsDNA)
DNA 1: TTTTTAATTCAAAAAATAATATATTATATTTCAAAT
DNA 2: ATTTGAAATATAATATATTATTTTTTGAATTAAAAA
B32: CACACA_negctrl_site699 (dsDNA)
DNA 1: TTTTATTTCAATCCACAAGGGATAAAATAAAGTTTT
DNA 2: AAAACTTTATTTTATCCCTTGTGGATTGAAATAAAA
B33: CACACA_site2826 (dsDNA)
DNA 1: AGATATAAGAAAAGCACACACACACCCAAAAAAAAA
DNA 2: TTTTTTTTTGGGTGTGTGTGTGCTTTTCTTATATCT
B34: CACACA_site6310 (dsDNA)
DNA 1: ATACATCAAGGACACACACACACACGCACACGCACA
DNA 2: TGTGCGTGTGCGTGTGTGTGTGTGTCCTTGATGTAT
B35: CACACA_site372 (dsDNA)
DNA 1: AAGCATACATCAAGCACACACACACCCACACCCACA
DNA 2: TGTGGGTGTGGGTGTGTGTGTGCTTGATGTATGCTT
B36: CACACA_negctrl_site593 (dsDNA)
DNA 1: TAATTTTTGTAAACAGTCATGGATTCAAAAAAAAAA
DNA 2: TTTTTTTTTTGAATCCATGACTGTTTACAAAAATTA
B37: CACACA_site5303 (dsDNA)
DNA 1: CCCCCCCACGGACACACACACATACATACCACATAT
DNA 2: ATATGTGGTATGTATGTGTGTGTGTCCGTGGGGGGG
B38: CACACA_site1716 (dsDNA)
DNA 1: GGGGGGGGAGGGTGAATACACACGTAATAATCATAA
DNA 2: TTATGATTATTACGTGTGTATTCACCCTCCCCCCCC

Assays:
Assay in all cases: gcPBM; about 25 ug protein; PBS, 1% milk, 0.2 mg/ml BSA, salmon testes DNA, 0.03% Triton X-100
Conditions in all cases: tags: N-terminal GST (pGEX-4T-1), kept; label: surface-attached array probe
AP2-LT D1 = target: T1, AP2-LT D1
PF3D7_0420300 D1 = target: T2, PF3D7_0420300 D1
AP2-HC D1 = target: T3, AP2-HC D1

Row | Binder | binding signal (AP2-LT D1) | binding signal (PF3D7_0420300 D1) | binding signal (AP2-HC D1)
1 | B1 | 8.75 ln median PBM intensity, better of two orientations | 9.02 ln median PBM intensity, better of two orientations | 
2 | B2 | 8.7 ln median PBM intensity, better of two orientations | 8.92 ln median PBM intensity, better of two orientations | 
3 | B3 |  |  | 12.1 ln median PBM intensity, better of two orientations
4 | B4 | 10.6 ln median PBM intensity, better of two orientations | 10.4 ln median PBM intensity, better of two orientations | 
5 | B5 | 8.74 ln median PBM intensity, better of two orientations | 9.04 ln median PBM intensity, better of two orientations | 
6 | B6 | 8.6 ln median PBM intensity, better of two orientations | 8.88 ln median PBM intensity, better of two orientations | 
7 | B7 |  |  | 12 ln median PBM intensity, better of two orientations
8 | B8 |  |  | 12 ln median PBM intensity, better of two orientations
9 | B9 | 10.3 ln median PBM intensity, better of two orientations | 10.3 ln median PBM intensity, better of two orientations | 
10 | B10 | 8.81 ln median PBM intensity, better of two orientations | 9.06 ln median PBM intensity, better of two orientations | 
11 | B11 |  |  | 11.9 ln median PBM intensity, better of two orientations
12 | B12 | 8.66 ln median PBM intensity, better of two orientations | 8.94 ln median PBM intensity, better of two orientations | 
13 | B13 | 10.8 ln median PBM intensity, better of two orientations | 10.8 ln median PBM intensity, better of two orientations | 
14 | B14 | 8.54 ln median PBM intensity, better of two orientations | 8.83 ln median PBM intensity, better of two orientations | 
15 | B15 |  |  | 12.1 ln median PBM intensity, better of two orientations
16 | B16 | 10.1 ln median PBM intensity, better of two orientations | 10 ln median PBM intensity, better of two orientations | 
17 | B17 | 10.7 ln median PBM intensity, better of two orientations | 10.6 ln median PBM intensity, better of two orientations | 
18 | B18 | 10.7 ln median PBM intensity, better of two orientations | 10.4 ln median PBM intensity, better of two orientations | 
19 | B19 | 8.56 ln median PBM intensity, better of two orientations | 8.78 ln median PBM intensity, better of two orientations | 

Row | Binder | binding signal (AP2-LT D1) | binding signal (PF3D7_0420300 D1) | binding signal (AP2-HC D1)
20 | B20 | 10.7 ln median PBM intensity, better of two orientations | 10.6 ln median PBM intensity, better of two orientations | 
21 | B21 | 8.79 ln median PBM intensity, better of two orientations | 8.86 ln median PBM intensity, better of two orientations | 
22 | B22 |  |  | 12.2 ln median PBM intensity, better of two orientations
23 | B23 | 10.9 ln median PBM intensity, better of two orientations | 10.9 ln median PBM intensity, better of two orientations | 
24 | B24 |  |  | 12.1 ln median PBM intensity, better of two orientations
25 | B25 | 8.51 ln median PBM intensity, better of two orientations | 8.97 ln median PBM intensity, better of two orientations | 
26 | B26 |  |  | 12 ln median PBM intensity, better of two orientations
27 | B27 | 8.73 ln median PBM intensity, better of two orientations | 9 ln median PBM intensity, better of two orientations | 
28 | B28 | 8.81 ln median PBM intensity, better of two orientations | 9.03 ln median PBM intensity, better of two orientations | 
29 | B29 |  |  | 11.9 ln median PBM intensity, better of two orientations
30 | B30 |  |  | 12 ln median PBM intensity, better of two orientations
31 | B31 | 8.36 ln median PBM intensity, better of two orientations | 8.79 ln median PBM intensity, better of two orientations | 
32 | B32 | 8.46 ln median PBM intensity, better of two orientations | 8.71 ln median PBM intensity, better of two orientations | 
33 | B33 |  |  | 12.1 ln median PBM intensity, better of two orientations
34 | B34 | 10.6 ln median PBM intensity, better of two orientations | 10.4 ln median PBM intensity, better of two orientations | 
35 | B35 |  |  | 11.9 ln median PBM intensity, better of two orientations
36 | B36 | 8.58 ln median PBM intensity, better of two orientations | 8.81 ln median PBM intensity, better of two orientations | 
37 | B37 | 11.2 ln median PBM intensity, better of two orientations | 11 ln median PBM intensity, better of two orientations | 
38 | B38 | 10 ln median PBM intensity, better of two orientations | 10.5 ln median PBM intensity, better of two orientations | 

— PMC11417369, “DNA sequence and chromatin differentiate sequence-specific transcription factor binding in the human malaria parasite Plasmodium falciparum”
